In article PMC5413349 one finds mean duration of plus-end tracking events of dynein on growing microtubules with EB1 and dynactin after addition of LIS1 data, which are given here for one molecule.

For the assay, the target named is human cytoplasmic dynein-1 complex (recombinant, SNAPf tag on the heavy chain) (human) (UniProt Q14204).

B1: human full-length Lissencephaly-1 (LIS1), unlabelled (natural protein)
chain: MVLSQRQRDELNRAIADYLRSNGYEEAYSVFKKEAELDVNEELDKKYAGLLEKKWTSVIRLQKKVMELESKLNEAKEEFTSGGPLGQKRDPKEWIPRPPEKYALSGHRSPVTRVIFHPVFSVMVSASEDATIKVWDYETGDFERTLKGHTDSVQDISFDHSGKLLASCSADMTIKLWDFQGFECIRTMHGHDHNVSSVAIMPNGDHIVSASRDKTIKMWEVQTGYCVKTFTGHREWVRMVRPNQDGTLIASCSNDQTVRVWVVATKECKAELREHEHVVECISWAPESSYSSISEATGSETKKSGKPGPFLLSGSRDKTIKMWDVSTGMCLMTLVGHDNWVRGVLFHSGGKFILSCADDKTLRVWDYKNKRCMKTLNAHEHFVTSLDFHKTAPYVVTGSVDQTVKVWECR
With B1, the mean duration of plus-end tracking events of dynein on growing microtubules with EB1 and dynactin after addition of LIS1 is 14 s.
